# Molecular target: extracellular domain of human DPP4 (residues 39-766), wild type (human), P27487
# Assay: nonreducing SDS-PAGE
# Details: remark: other sources report otherwise
binder,measurement,value
"extracellular domain of human DPP4 (residues 39-766), wild type, P27487 39-766 (domain or fragment, here or on the partner: glycosylated (sites not given); glycosylated (sites not given)) SRKTYTLTDYLKNTYRLKLYSLRWISDHEYLYKQENNILVFNAEYGNSSVFLENSTFDEFGHSINDYSISPDGQFILLEYNYVKQWRHSYTASYDIYDLNKRQLITEERIPNNTQWVTWSPVGHKLAYVWNNDIYVKIEPNLPSYRITWTGKEDIIYNGITDWVYEEEVFSAYSALWWSPNGTFLAYAQFNDTEVPLIEYSFYSDESLQYPKTVRVPYPKAGAVNPTVKFFVVNTDSLSSVTNATSIQITAPASMLIGDHYLCDVTWATQERISLQWLRRIQNYSVMDICDYDESSGRWNCLVARQHIEMSTTGWVGRFRPSEPHFTLDGNSFYKIISNEEGYRHICYFQIDKKDCTFITKGTWEVIGIEALTSDYLYYISNEYKGMPGGRNLYKIQLSDYTKVTCLSCELNPERCQYYSVSFSKEAKYYQLRCSGPGLPLYTLHSSVNDKGLRVLEDNSALDKMLQNVQMPSKKLDFIILNETKFWYQMILPPHFDKSKKYPLLLDVYAGPCSQKADTVFRLNWATYLASTENIIVASFDGRGSGYQGDKIMHAINRRLGTFEVEDQIEAARQFSKMGFVDNKRIAIWGWSYGGYVTSMVLGSGSGVFKCGIAVAPVSRWEYYDSVYTERYMGLPTPEDNLDHYRNSTVMSRAENFKQVEYLLIHGTADDNVHFQQSAQISKALVDVGVDFQAMWYTDEDHGIASSTAHQHIYTHMSHFIKQCFSLP",dimer percent,40.8%

# From publication PMC8669218
